The values that follow come from patent US8337848.

In the assay the target is amyloid precursor protein (APP), full length (106 kDa), from MOG-G-UVW cell lysate (human) (UniProt P05067). Nature of the assay: competition sandwich ELISA on APP from MOG cell lysate; competitor: APP DuoSet detection antibody; irrelevant IgG at 20 µg/ml.
Sequence of UniProt P05067 (P05067 18-770): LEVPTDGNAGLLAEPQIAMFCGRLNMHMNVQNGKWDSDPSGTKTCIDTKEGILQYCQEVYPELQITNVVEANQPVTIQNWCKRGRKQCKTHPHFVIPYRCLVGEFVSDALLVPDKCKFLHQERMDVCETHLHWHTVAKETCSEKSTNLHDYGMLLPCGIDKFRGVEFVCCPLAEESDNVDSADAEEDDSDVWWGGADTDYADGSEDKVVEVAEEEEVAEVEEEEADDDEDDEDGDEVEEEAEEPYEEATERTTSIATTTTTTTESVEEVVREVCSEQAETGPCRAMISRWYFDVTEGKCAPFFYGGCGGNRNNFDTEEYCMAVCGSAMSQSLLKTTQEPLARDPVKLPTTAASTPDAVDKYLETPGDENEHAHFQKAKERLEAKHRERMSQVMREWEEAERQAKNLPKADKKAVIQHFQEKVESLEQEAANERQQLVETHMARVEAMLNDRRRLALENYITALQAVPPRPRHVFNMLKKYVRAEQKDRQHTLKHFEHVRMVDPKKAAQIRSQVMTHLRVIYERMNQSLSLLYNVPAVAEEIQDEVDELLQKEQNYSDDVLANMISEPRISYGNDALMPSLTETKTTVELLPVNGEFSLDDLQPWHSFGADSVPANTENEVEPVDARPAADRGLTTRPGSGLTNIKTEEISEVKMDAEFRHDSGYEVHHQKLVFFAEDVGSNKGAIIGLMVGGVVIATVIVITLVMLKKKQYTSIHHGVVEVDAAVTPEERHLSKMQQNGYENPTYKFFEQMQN

For “irrelevant mouse IgG antibody (Perbio Science)”, the % reduction of the binding of the second commercial antibody was determined as 3.3%.
